Results on 71 molecules are retold here after patent US20250011363A1, “OPTIMIZED SHORTENED PEPTIDE THAT BINDS TO ACETYLCHOLINE RECEPTOR, AND USE THEREOF” (SKINMED CO., LTD., priority 2021, published 2025).

In test [1] the target is acetylcholine receptor. Put plainly: SPR, AchR immobilized on chip, peptide at 10 uM.
For test [2], the target named is acetylcholine receptor. Description: SPR, peptide at 10 uM on immobilised AchR.

RSQRKR [6mer-2-29] came in with a Binding affinity with acetylcholine receptor [1] of 142 RU.

In turn, RSYYKR [6mer-2-38] registered a Binding affinity with acetylcholine receptor [1] of 136 RU.

For KKQYCR [6mer-1-16], in the test with acetylcholine receptor [2], the Binding affinity (RU) came out at 136 RU.

As for RSLTKK [6mer-2-45], the Binding affinity in the test with acetylcholine receptor [1] was 121 RU.

In the test with acetylcholine receptor [2], KRQICK [6mer-1-15] showed a Binding affinity (RU) of 123 RU.

Turning to RKQILR [6mer-1-2], the Binding affinity (RU) in the test with acetylcholine receptor [2] worked out at 142 RU.

KSVSKK [6mer-2-64] gave a Binding affinity with acetylcholine receptor [1] of 136 RU.

On to KRSFYR [6mer-1-19], for which the Binding affinity (RU) with acetylcholine receptor [2] stood at 135 RU.

Turning to RVIRRR [6mer-2-66], in the test with acetylcholine receptor [1], the Binding affinity amounted to 123 RU.

The molecule RKRFLK [6mer-1-14] had a Binding affinity (RU) with acetylcholine receptor [2] of 145 RU.

In the test with acetylcholine receptor [1], RRLSKK [6mer-2-60] displayed a Binding affinity of 148 RU.

For RGFQRK [6mer-2-61], the Binding affinity with acetylcholine receptor [1] was 148 RU.

Turning to KRQIQR [6mer-1-13], the Binding affinity (RU) in the test with acetylcholine receptor [2] was found to be 147 RU.

In turn, KRQRKK [6mer-2-52] returned a Binding affinity in the test with acetylcholine receptor [1] of 136 RU.

With RRLCRK [6mer-2-32], in the test with acetylcholine receptor [1], the Binding affinity was determined as 139 RU.

RKRLCK [6mer-1-22] had a Binding affinity (RU) with acetylcholine receptor [2] of 126 RU.

In the test with acetylcholine receptor [1], RVLSRK [6mer-2-59] returned a Binding affinity of 123 RU.

In the test with acetylcholine receptor [1], KLLSKR [6mer-2-42] yielded a Binding affinity of 126 RU.

For the molecule RHHNRR [6mer-2-1200], in the test with acetylcholine receptor [1], the Binding affinity came to 30 RU.

In turn, KKVISK [6mer-1-1] registered a Binding affinity (RU) with acetylcholine receptor [2] of 122 RU.

For RLVTKR [6mer-2-62], the Binding affinity with acetylcholine receptor [1] was determined as 147 RU.

For KRLQRK [6mer-2-58], the Binding affinity in the test with acetylcholine receptor [1] came out at 122 RU.

Regarding KSYQRK [6mer-2-31], the Binding affinity in the test with acetylcholine receptor [1] came to 121 RU.

The molecule KRVQCR [6mer-1-17] registered a Binding affinity (RU) with acetylcholine receptor [2] of 135 RU.

As to KSFRKR [6mer-2-63], the Binding affinity in the test with acetylcholine receptor [1] is 121 RU.

In the test with acetylcholine receptor [1], KSVRRK [6mer-2-44] gave a Binding affinity of 145 RU.

KLLYRK [6mer-2-37]: the Binding affinity with acetylcholine receptor [1] amounted to 148 RU.

Consider RLFYKK [6mer-2-55], for which the Binding affinity in the test with acetylcholine receptor [1] was determined as 125 RU.

In the test with acetylcholine receptor [1], RWRYRK [6mer-2-39] showed a Binding affinity of 137 RU.

With RRWISK [6mer-1-28], the Binding affinity (RU) with acetylcholine receptor [2] was 125 RU.

The molecule RCTNKR [6mer-2-1199] came in with a Binding affinity with acetylcholine receptor [1] of 27 RU.

Turning to KGVCKR [6mer-2-65], in the test with acetylcholine receptor [1], the Binding affinity is 148 RU.

RSQSKR [6mer-2-50] had a Binding affinity with acetylcholine receptor [1] of 125 RU.

In the case of RRFRKK [6mer-2-48], the Binding affinity with acetylcholine receptor [1] came out at 153 RU.

KGRRRK [6mer-2-68] had a Binding affinity in the test with acetylcholine receptor [1] of 142 RU.

In turn, KKQFTR [6mer-1-18] returned a Binding affinity (RU) with acetylcholine receptor [2] of 145 RU.

For RKRRRK [6mer-1-8], in the test with acetylcholine receptor [2], the Binding affinity (RU) was 125 RU.

As for KRWRLK [6mer-1-10], the Binding affinity (RU) in the test with acetylcholine receptor [2] came to 139 RU.

For KRQFTK [6mer-1-11], in the test with acetylcholine receptor [2], the Binding affinity (RU) came to 139 RU.

In turn, KLYLKR [6mer-2-46] yielded a Binding affinity with acetylcholine receptor [1] of 153 RU.

In the test with acetylcholine receptor [2], KKQICK [6mer-1-12] yielded a Binding affinity (RU) of 128 RU.

In the test with acetylcholine receptor [1], RWISRK [6mer-2-35] registered a Binding affinity of 148 RU.

Regarding KRSFTK [6mer-1-27], the Binding affinity (RU) with acetylcholine receptor [2] was 142 RU.

In the test with acetylcholine receptor [2], RKSRCK [6mer-1-6] showed a Binding affinity (RU) of 153 RU.

RKVIRK [6mer-1-24] returned a Binding affinity (RU) with acetylcholine receptor [2] of 142 RU.

The molecule KLFCKK [6mer-2-67] had a Binding affinity with acetylcholine receptor [1] of 124 RU.

In the test with acetylcholine receptor [1], RVITKR [6mer-2-43] showed a Binding affinity of 146 RU.

Take RKWYLK [6mer-1-21]: the Binding affinity (RU) with acetylcholine receptor [2] amounted to 137 RU.

Molecule KKRVLR [6mer-1-26] displayed a Binding affinity (RU) with acetylcholine receptor [2] of 123 RU.

In turn, KRQIRK [6mer-1-5] returned a Binding affinity (RU) in the test with acetylcholine receptor [2] of 135 RU.

The molecule KSLSRR [6mer-2-53] displayed a Binding affinity with acetylcholine receptor [1] of 125 RU.

Molecule KQLCKR [6mer-2-41] yielded a Binding affinity with acetylcholine receptor [1] of 142 RU.

On to RRYRKK [6mer-2-40], for which the Binding affinity with acetylcholine receptor [1] worked out at 153 RU.

With RKSFYK [6mer-1-4], the Binding affinity (RU) with acetylcholine receptor [2] was found to be 139 RU.

The molecule KKLIRR [6mer-1-25] had a Binding affinity (RU) with acetylcholine receptor [2] of 135 RU.

On to KVLSRK [6mer-2-28], for which, in the test with acetylcholine receptor [1], the Binding affinity stood at 142 RU.

In the test with acetylcholine receptor [1], KGRRRR [6mer-2-54] yielded a Binding affinity of 124 RU.

RQFYKK [6mer-2-30] yielded a Binding affinity with acetylcholine receptor [1] of 139 RU.

Regarding RLRCRK [6mer-2-49], the Binding affinity in the test with acetylcholine receptor [1] came out at 154 RU.

In turn, KVFRRK [6mer-2-34] displayed a Binding affinity with acetylcholine receptor [1] of 124 RU.

Consider KLQSRR [6mer-2-47], for which the Binding affinity with acetylcholine receptor [1] stood at 148 RU.

In the test with acetylcholine receptor [2], KKSRYK [6mer-1-20] gave a Binding affinity (RU) of 147 RU.

In the test with acetylcholine receptor [1], KQFLKK [6mer-2-51] showed a Binding affinity of 139 RU.

In the case of RRLQKK [6mer-2-36], the Binding affinity with acetylcholine receptor [1] amounted to 131 RU.

In the test with acetylcholine receptor [1], RSQLRR [6mer-2-56] had a Binding affinity of 149 RU.

On to RKSFCK [6mer-1-9], for which the Binding affinity (RU) with acetylcholine receptor [2] stood at 154 RU.

Take KRQYSK [6mer-1-7]: the Binding affinity (RU) with acetylcholine receptor [2] came out at 126 RU.

RQFRKK [6mer-2-33] gave a Binding affinity with acetylcholine receptor [1] of 142 RU.

KRSVSR [6mer-1-23] came in with a Binding affinity (RU) with acetylcholine receptor [2] of 153 RU.

In the test with acetylcholine receptor [2], RKRRSR [6mer-1-3] had a Binding affinity (RU) of 154 RU.

With KQRCRR [6mer-2-57], the Binding affinity with acetylcholine receptor [1] came to 139 RU.
